Drawing on patent US20040092720A1 (US Dept. of Health and Human Services, published 2004), this text covers Counts/minute bound for 24 molecules.

First the molecules themselves.
B1: Peptide E63 (peptide)
peptide: IVVPVCLAFLLTTLLGVLFCFNKR
B2: Peptide E60 (peptide)
peptide: RMAAYTDEGGKDGPEFTFTTPKFA
B3: Peptide E64 (peptide)
peptide: LTTLLGVLFCFNKRDLIKKHIWPN
B4: Peptide E76 (peptide)
peptide: QNTSSTVQYSTVVHSGYRHQVPSV
B5: Peptide E68 (peptide)
peptide: PPRHNFNSKDQMYSDGNFTDVSVV
B6: Peptide E80 (peptide)
peptide: ERPEDLQLVDHVDGGDGILPRQQY
B7: Peptide E78 (peptide)
peptide: VPSVQVFSRSESTQPLLDSEERPE
B8: Peptide E58 (peptide)
peptide: DSSHTEYTLSSLTSDTLYMVRMAA
B9: Peptide E77 (peptide)
peptide: TVVHSGYRHQVPSVQVFSRSESTQ
B10: Peptide E73 (peptide)
peptide: TEGHSSGIGGSSCMSSSRPSISSS
B11: Peptide E71 (peptide)
peptide: KKPFPEDLKSLDLFKKEKINTEGH
B12: Peptide E61 (peptide)
peptide: KDGPEFTFTTPKFAQGEIEAIVVP
B13: Peptide E65 (peptide)
peptide: FNKRDLIKKHIWPNVPDPSKSHIA
B14: Peptide E81 (peptide)
peptide: HVDGGDGILPRQQYFKQNCSQHES
B15: Peptide E69 (peptide)
peptide: QMYSDGNFTDVSVVEIEANDKKPF
B16: Peptide E74 (peptide)
peptide: SSCMSSSRPSISSSDENESSQNTS
B17: Peptide E66 (peptide)
peptide: IWPNVPDPSKSHIAQWSPHTPPRH
B18: Peptide E79 (peptide)
peptide: ESTQPLLDSEERPEDLQLVDHVDG
B19: Peptide E62 (peptide)
peptide: PKFAQGEIEAIVVPVCLAFLLTTL
B20: Peptide E70 (peptide)
peptide: VSVVEIEANDKKPFPEDLKSLDLF
B21: Peptide E67 (peptide)
peptide: SHIAQWSPHTPPRHNFNSKDQMYS
B22: Peptide E82 (peptide)
peptide: RQQYFKQNCSQHESSPDISHFERS
B23: Peptide E75 (peptide)
peptide: ISSSDENESSQNTSSTVQYSTVVH
B24: Peptide E72 (peptide)
peptide: LDLFKKEKINTEGHSSGIGGSSCM

This test concerns the target T1, recombinant human IL-6 (human, UniProt P05231 30-212, labeled with radioactive iodine).
T1 construct: Labeled probe in solution, added to wells that carry the synthetic peptides; also called IL-6 ligand; Interleukin-6
Put plainly: radioiodinated IL-6 on peptide array.
As to B1, the Counts/minute bound is 4520 counts/minute.

Turning to B2, the Counts/minute bound was determined as 1450 counts/minute.

For B3, the Counts/minute bound was 4500 counts/minute.

On to B4, for which the Counts/minute bound turned out to be 1200 counts/minute.

As for B5, the Counts/minute bound worked out at 1230 counts/minute.

For B6, the Counts/minute bound amounted to 1210 counts/minute.

Turning to B7, the Counts/minute bound came to 1230 counts/minute.

Consider B8, for which the Counts/minute bound came out at 1350 counts/minute.

Turning to B9, the Counts/minute bound was 1250 counts/minute.

On to B10, for which the Counts/minute bound amounted to 1060 counts/minute.

In the case of B11, the Counts/minute bound came to 2690 counts/minute.

In the case of B12, the Counts/minute bound came to 1390 counts/minute.

For B13, the Counts/minute bound came out at 5740 counts/minute.

B14: the Counts/minute bound worked out at 1100 counts/minute.

With B15, the Counts/minute bound was determined as 1190 counts/minute.

For the molecule B16, the Counts/minute bound stood at 1130 counts/minute.

As to B17, the Counts/minute bound was 1200 counts/minute.

In the case of B18, the Counts/minute bound stood at 1380 counts/minute.

With B19, the Counts/minute bound is 2790 counts/minute.

On to B20, for which the Counts/minute bound was determined as 1300 counts/minute.

As for B21, the Counts/minute bound came out at 1200 counts/minute.

In the case of B22, the Counts/minute bound came out at 1090 counts/minute.

On to B23, for which the Counts/minute bound amounted to 1120 counts/minute.

B24: the Counts/minute bound turned out to be 1440 counts/minute.
